Assay [1] addresses T1, murine Netrin-1-Fc (Laminin V and VI homology domains, amino acid M1 to amino acid P455, fused to the Fc … (murine; human, UniProt O09118 25-455). The experiment in a line: SPR (ProteOn), Unc5B-His immobilised, mNetrin-1 injected at 250 nM. How it is done:
(§1) Binding experiments were performed by surface plasmon resonance SPR measurements on a ProteOn XPR36 instrument (Bio-Rad Laboratories, Inc.) at 25° C. In accordance with common SPR terminology, proteins that are immobilized onto the sensor chip are referred to as ‘ligands’, whereas binding partners injected in solution are referred to as ‘analytes’.
(§2) For binding competition experiments human Unc5B-Fc and Unc5B-His proteins were used as ligands and immobilized at high surface densities (3000-4000 RU) on an activated ProteOn GLC sensor chip (Bio-Rad Laboratories, Inc.). Unc5B antibodies and Netrin-Fc were used as analytes. To perform binding assays, analytes and 1:1 molar mixtures of analytes were injected in PBS, 0.005% v/v Tween-20, pH 7.4, at a flow rate of 100 μl/min and sensorgrams for association and dissociation phases were recorded. Blank surfaces are used for background corrections. Analytes are injected for 240 s and allowed to dissociate for 600 s. […]
(§3) For the SPRs binding experiments Unc5B-His and -Fc proteins were immobilized onto a ProteOn GLC sensor chips and mNetrin-1, Unc5B antibodies or equimolar mixtures of Unc5B antibodies and Netrin-1 were injected as indicated at a concentration of 250 nM. Binding sensorgrams were recorded for association and dissociation reactions. […]

Assay [2] concerns the target T1, murine Netrin-1-Fc (Laminin V and VI …). As to the kind of experiment: SPR (ProteOn), Unc5B-Fc immobilised, mNetrin-1 injected at 250 nM. How it is done: as §1, §2, §3

B1: human Unc5B-His (two N-terminal Ig-like domains of Unc5B, amino acid M1 to amino acid V243, C-terminal Histidine tag) (receptor)
chain: not shown
notes: range 1-243; The cloned range M1-V243 includes the native signal peptide; also called human Unc5B-His tagged protein; not shown: C-terminal Histidine tag
On to B1, for which the binding result in assay [1] is recorded as “binds”.

B2: human Unc5B-Fc (two N-terminal Ig-like domains of Unc5B, amino acid M1 to amino acid V243, fused to the Fc portion of human IgG1) (Fc fusion)
chain: not shown
notes: range 1-243; not shown: Fc portion of human IgG1
Turning to B2, the binding result in assay [2] is given as “binds”.

(Values after patent US20100221262A1 (Genentech, published 2010).)
